Values quoted from earlier work in PMC2910557.
Read-outs that look alike come from different tables or passages of the source.

Tests used:
[1] = target: pHtrII (Natronomonas pharaonis) (UniProt P42259)
[2] = target: pHtrII (Natronomonas pharaonis) (UniProt P42259); remark: listed apart in the source

UniProt P42259, sequence (P42259 whole entry): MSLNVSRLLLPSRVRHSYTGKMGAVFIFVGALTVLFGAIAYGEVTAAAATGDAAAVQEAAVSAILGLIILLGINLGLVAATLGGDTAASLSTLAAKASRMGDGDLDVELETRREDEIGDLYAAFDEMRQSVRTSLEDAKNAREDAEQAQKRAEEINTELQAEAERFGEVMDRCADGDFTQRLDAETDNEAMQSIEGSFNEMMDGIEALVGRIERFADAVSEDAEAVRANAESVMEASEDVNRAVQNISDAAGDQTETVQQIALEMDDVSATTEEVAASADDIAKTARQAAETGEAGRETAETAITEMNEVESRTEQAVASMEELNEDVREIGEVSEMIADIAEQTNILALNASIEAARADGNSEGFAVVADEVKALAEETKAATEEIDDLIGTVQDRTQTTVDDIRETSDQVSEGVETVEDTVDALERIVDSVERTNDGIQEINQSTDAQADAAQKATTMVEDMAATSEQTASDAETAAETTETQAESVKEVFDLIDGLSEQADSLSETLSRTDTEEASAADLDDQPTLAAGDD

Substance | Kd [1] [nM] | Kd [2] [nM]
ppR M intermediate (ppRM) (from UniProt P42196) | 5000 | –
ppR (sensory rhodopsin II) (from UniProt P42196) | – | 160
